Literature values, collected in PMC7900953, “Location of a single histidine within peptide carriers increases mRNA delivery” (The Journal of Gene Medicine, 2020).
Where no end group is shown, it is not given here.

Tested on: human cells
Details: cited from earlier work

H3k4b (KHHHKHHHKHHHKHHHK; also: four-branched lysine core)
Cytotoxicity to human cells: no observed cytotoxicity to human cells
